Consider 8 sequences from the supplement of paper PMC10065799, “High-throughput profiling of sequence recognition by tyrosine kinases and SH2 domains using bacterial peptide display” (eLife, 2023).

One series relates to AncSZ. The series is described as follows: phosphorylation enrichment, bacterial display (enrichment ratio); higher = better substrate or ligand; peptides without Tyr show the background.
The target of a further series is EPHB1 (UniProt P54762). The series is described as above.
The target in another series is EPHB2 (UniProt P29323). The description is as above.
A further series has as its target FGFR1 (UniProt P11362). Described as above.
Another series concerns the target FGFR3 (UniProt P22607). The series is described as above.
The subject of a further series is Fer (mouse). The description is as above.
Another series addresses Fes (UniProt P07332). The series is described as above.
Another series concerns the target Fyn (UniProt P06241). The series is described as above.
In another series the target is Hck (UniProt P08631). The series is described as above.
Hck, sequence (P08631 whole entry, looked up): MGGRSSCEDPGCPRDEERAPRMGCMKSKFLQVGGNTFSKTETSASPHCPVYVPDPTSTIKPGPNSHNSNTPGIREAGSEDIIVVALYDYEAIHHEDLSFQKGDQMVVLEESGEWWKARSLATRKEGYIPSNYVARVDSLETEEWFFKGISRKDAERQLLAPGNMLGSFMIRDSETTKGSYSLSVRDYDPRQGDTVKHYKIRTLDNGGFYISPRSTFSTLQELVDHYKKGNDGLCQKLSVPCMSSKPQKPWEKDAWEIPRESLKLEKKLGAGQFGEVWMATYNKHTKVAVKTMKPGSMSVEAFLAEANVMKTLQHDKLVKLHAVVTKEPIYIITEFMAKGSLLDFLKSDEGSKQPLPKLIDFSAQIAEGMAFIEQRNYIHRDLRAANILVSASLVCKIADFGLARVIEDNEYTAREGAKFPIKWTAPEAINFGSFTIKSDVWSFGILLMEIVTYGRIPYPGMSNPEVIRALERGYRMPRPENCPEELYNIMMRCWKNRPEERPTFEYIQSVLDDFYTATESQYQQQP
A further series addresses Jak2 (UniProt O60674). The series is described as above.
The next series deals with MERTK (UniProt Q12866). The series is described as above.
MERTK, sequence (Q12866 whole entry, looked up): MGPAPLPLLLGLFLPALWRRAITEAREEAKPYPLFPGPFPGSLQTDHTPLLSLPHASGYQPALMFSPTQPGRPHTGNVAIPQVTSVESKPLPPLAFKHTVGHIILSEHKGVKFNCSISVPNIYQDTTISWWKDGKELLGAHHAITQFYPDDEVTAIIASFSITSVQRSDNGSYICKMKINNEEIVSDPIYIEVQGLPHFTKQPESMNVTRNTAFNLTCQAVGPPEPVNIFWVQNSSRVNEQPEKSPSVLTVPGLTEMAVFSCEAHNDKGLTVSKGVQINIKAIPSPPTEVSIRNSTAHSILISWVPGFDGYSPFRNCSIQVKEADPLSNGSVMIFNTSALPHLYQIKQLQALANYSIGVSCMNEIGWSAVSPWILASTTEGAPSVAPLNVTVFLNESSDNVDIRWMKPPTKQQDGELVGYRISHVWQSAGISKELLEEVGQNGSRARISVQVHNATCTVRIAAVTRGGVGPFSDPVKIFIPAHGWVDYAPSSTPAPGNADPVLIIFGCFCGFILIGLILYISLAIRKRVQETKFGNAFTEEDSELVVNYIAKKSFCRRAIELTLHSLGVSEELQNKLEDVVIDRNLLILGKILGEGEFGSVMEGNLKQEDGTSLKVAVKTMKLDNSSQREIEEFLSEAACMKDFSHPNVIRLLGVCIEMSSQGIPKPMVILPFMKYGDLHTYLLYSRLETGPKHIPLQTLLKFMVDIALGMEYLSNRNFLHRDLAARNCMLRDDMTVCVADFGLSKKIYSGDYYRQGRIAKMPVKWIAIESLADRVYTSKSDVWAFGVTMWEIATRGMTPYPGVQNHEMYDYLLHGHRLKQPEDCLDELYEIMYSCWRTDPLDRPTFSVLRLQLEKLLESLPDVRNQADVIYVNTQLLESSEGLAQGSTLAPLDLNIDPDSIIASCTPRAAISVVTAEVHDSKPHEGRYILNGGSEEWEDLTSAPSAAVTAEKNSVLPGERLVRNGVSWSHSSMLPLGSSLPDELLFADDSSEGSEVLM
For a further series, the system named is c-Abl (mouse). The description is as above.
The test system of the next series is c-Src. Described as above.
Another series has as its target Grb2 SH2 (UniProt P62993). In words: SH2 binding enrichment of the phosphorylated peptide, bacterial display (enrichment ratio); higher = better substrate or ligand; peptides without Tyr show the background.
Another series concerns the target SHP2-C SH2. The series is described as above.
The next series addresses c-Src SH2. The series is described as above.
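Throughout, for SH2 binding enrichment of the phosphorylated peptide, bacterial display: peptide library displayed on the E. coli surface as eCPX fusions, selected cells deep-sequenced, score is each peptide's frequency after selection divided by its frequency in the input.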
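Throughout, for phosphorylation enrichment, bacterial display: 11-residue human phosphosite peptides and single-mutation variants displayed on the E. coli surface, counted by deep sequencing, each peptide's frequency after selection divided by its frequency in the unselected input library; frequency after pTyr selection over input frequency; kinase dosed for 20-30% of maximal phosphorylation in three min.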

Fes, sequence (P07332 whole entry, looked up): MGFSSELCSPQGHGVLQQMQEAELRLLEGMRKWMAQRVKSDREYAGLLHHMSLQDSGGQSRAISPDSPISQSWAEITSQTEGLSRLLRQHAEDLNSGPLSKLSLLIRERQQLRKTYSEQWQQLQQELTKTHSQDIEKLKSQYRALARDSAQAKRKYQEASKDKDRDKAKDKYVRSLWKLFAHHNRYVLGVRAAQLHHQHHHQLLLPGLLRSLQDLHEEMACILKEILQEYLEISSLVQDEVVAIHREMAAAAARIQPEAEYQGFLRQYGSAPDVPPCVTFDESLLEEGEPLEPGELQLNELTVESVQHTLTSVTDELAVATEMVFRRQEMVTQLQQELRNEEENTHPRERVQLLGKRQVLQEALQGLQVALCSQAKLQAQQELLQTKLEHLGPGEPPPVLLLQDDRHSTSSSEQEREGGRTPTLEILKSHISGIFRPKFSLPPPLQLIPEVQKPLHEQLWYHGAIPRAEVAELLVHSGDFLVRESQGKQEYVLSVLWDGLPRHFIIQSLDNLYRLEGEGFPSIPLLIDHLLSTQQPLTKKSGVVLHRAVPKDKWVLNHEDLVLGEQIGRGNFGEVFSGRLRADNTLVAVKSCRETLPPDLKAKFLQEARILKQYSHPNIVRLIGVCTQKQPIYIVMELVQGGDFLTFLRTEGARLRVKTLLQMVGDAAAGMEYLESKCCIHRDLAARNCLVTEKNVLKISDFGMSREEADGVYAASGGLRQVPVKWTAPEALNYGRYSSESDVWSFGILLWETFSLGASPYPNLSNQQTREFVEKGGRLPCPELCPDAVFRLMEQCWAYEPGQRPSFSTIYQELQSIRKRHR
FGFR3, sequence (P22607 whole entry, looked up): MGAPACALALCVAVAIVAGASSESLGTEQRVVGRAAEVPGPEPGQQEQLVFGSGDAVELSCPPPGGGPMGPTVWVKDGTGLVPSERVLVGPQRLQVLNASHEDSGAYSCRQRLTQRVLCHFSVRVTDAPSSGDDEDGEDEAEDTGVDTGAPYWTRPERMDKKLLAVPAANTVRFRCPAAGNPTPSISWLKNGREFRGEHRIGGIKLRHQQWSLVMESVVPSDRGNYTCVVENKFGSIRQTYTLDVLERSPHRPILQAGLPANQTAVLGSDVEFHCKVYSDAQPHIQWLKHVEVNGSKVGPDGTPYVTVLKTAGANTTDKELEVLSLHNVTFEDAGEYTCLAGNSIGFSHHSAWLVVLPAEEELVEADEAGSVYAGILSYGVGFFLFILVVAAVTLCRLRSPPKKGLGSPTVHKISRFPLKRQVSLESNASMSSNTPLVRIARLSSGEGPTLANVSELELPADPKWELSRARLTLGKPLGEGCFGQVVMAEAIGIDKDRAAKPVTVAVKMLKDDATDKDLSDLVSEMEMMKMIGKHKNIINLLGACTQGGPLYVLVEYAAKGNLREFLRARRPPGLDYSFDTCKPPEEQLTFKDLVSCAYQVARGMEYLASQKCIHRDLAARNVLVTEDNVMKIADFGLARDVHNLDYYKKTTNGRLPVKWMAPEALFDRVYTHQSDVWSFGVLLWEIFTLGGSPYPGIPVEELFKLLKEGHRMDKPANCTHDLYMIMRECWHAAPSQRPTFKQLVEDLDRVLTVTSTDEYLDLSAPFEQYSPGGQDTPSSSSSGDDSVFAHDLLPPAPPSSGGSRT
Jak2, sequence (O60674 whole entry, looked up): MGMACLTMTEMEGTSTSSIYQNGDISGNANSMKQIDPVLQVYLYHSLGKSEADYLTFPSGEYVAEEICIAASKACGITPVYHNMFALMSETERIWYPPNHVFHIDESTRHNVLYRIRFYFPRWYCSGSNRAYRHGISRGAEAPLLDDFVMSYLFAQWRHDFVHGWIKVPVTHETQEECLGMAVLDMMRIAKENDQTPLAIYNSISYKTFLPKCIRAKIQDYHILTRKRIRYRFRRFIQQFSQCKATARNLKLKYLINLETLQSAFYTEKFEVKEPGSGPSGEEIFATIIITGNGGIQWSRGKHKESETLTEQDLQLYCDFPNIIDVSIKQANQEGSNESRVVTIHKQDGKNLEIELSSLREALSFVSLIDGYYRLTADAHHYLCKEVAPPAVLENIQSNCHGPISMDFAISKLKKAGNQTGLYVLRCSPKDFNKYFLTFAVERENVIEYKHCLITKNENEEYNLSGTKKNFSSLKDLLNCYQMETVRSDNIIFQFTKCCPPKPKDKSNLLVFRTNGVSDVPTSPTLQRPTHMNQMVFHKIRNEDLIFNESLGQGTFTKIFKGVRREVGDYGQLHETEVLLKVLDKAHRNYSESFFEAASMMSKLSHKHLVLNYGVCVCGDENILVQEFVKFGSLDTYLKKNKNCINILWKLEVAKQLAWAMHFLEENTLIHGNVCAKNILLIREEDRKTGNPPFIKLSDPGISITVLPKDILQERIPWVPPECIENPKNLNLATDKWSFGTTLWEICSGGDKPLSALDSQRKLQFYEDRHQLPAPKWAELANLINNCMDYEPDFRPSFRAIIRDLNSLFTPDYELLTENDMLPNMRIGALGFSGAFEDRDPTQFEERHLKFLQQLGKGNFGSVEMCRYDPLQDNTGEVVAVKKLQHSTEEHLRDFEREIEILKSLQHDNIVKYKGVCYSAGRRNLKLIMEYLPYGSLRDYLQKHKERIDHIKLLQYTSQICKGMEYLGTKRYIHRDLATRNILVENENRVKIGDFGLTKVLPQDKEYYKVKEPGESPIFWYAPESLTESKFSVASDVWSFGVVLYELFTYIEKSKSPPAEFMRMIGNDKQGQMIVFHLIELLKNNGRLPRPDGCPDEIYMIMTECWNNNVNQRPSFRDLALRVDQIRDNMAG
Fyn, sequence (P06241 whole entry, looked up): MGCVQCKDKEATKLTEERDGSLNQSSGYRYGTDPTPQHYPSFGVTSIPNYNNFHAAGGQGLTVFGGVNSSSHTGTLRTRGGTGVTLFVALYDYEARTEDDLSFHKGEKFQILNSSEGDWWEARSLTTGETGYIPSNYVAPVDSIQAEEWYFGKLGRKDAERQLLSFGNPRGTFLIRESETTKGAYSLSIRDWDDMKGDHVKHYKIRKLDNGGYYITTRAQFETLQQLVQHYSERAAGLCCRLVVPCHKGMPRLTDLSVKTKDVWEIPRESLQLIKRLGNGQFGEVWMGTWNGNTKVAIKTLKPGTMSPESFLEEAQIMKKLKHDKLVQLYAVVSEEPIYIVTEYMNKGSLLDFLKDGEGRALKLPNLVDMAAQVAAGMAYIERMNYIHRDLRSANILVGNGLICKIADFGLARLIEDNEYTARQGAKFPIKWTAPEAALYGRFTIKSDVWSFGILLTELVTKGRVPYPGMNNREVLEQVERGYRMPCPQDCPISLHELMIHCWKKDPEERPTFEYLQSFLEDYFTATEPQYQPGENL
Grb2 SH2, sequence (P62993 whole entry, looked up): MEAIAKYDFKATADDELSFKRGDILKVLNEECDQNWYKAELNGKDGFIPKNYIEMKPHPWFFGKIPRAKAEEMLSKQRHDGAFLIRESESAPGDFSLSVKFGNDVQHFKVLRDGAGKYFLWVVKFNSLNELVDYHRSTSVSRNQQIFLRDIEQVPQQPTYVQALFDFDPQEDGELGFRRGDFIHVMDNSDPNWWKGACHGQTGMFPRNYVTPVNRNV

On to PRRRFYVVACD [RNASE3_Y134_G130R], for which the phosphorylation enrichment in the series on AncSZ turned out to be 0.597; with EPHB1, 0.543; with EPHB2, 0.701; with FGFR1, 0.614; with FGFR3 it was 0.656; in the series on Fer (mouse), 0.433. Besides, the phosphorylation enrichment came out at 0.667 with Fes; 0.759 with Fyn; 0.705 in the series with Hck; 0.733 with Jak2; 0.73 with MERTK; 0.715 with c-Abl (mouse). In addition, the phosphorylation enrichment in the series with c-Src came to 0.545. Further, the values for the SH2 binding enrichment with Grb2 SH2, in the series with SHP2-C SH2 and with c-Src SH2 were 0.592, 0.486 and 0.47, respectively.

Take PSELYYSKIGP [SMG1_Y2254]: the phosphorylation enrichment in the series with AncSZ came out at 2.07; with EPHB1, 5.13; in the series with EPHB2, 2.91; with FGFR1 it was 12.9; in the series with FGFR3 it was 8.9; in the series with Fer (mouse), 16.3. The phosphorylation enrichment with Fes came to 1.68; with Fyn, 8.78; with Hck it was 18.8; with Jak2, 4.02; with MERTK, 23.8; in the series with c-Abl (mouse) it was 3.88. In addition, in the series on c-Src, the phosphorylation enrichment turned out to be 10.8. For the same sequence, the SH2 binding enrichment in the series with Grb2 SH2 amounted to 0.666; with SHP2-C SH2, 2.26; with c-Src SH2 it was 5.62.

With PTDGVYVMPTV [MYO7A_Y1668_S1666G], the phosphorylation enrichment in the series with AncSZ came to 6.14; with EPHB1, 2.01; with EPHB2, 1.48; in the series with FGFR1 it was 2.95; with FGFR3 it was 2.52; in the series with Fer (mouse) it was 0.789. Besides, the phosphorylation enrichment was found to be 1.21 in the series with Fes; 14 with Fyn; 6.35 with Hck; 1.3 in the series with Jak2; 11.7 with MERTK; 4.76 in the series with c-Abl (mouse). Besides, the phosphorylation enrichment with c-Src is 7.86. Moreover, the SH2 binding enrichment is 0.885 with Grb2 SH2, 0.943 with SHP2-C SH2 and 0.848 with c-Src SH2.

For the sequence PTEAQYRFIFM [PTPN11_Y511_Q506P_YF], the phosphorylation enrichment with AncSZ is 1.6; in the series with EPHB1, 0.876; with EPHB2, 0.767; with FGFR1, 1.9; in the series with FGFR3, 1.21; in the series on Fer (mouse) it was 1.06. The phosphorylation enrichment came out at 1.81 with Fes; 0.939 in the series with Fyn; 1.07 with Hck; 1.44 with Jak2; 0.702 in the series with MERTK; 1.32 with c-Abl (mouse). For the same sequence, the phosphorylation enrichment in the series on c-Src turned out to be 0.477. The SH2 binding enrichment in the series with Grb2 SH2 worked out at 0.585; with SHP2-C SH2, 0.593; in the series with c-Src SH2, 0.317.

Regarding PVQAAYQKVEA [HBB_Y131_V135E], the phosphorylation enrichment in the series on AncSZ came out at 0.921; with EPHB1 it was 0.54; with EPHB2 it was 0.559; with FGFR1, 0.709; in the series with FGFR3 it was 0.525; with Fer (mouse), 0.676. The phosphorylation enrichment in the series with Fes is 0.887; in the series with Fyn, 0.597; with Hck it was 0.653; with Jak2 it was 1.16; with MERTK it was 0.604; with c-Abl (mouse), 0.879. In addition, the phosphorylation enrichment in the series on c-Src is 0.587. The figures for the SH2 binding enrichment in the series with Grb2 SH2, in the series with SHP2-C SH2 and with c-Src SH2 were 1.02, 0.733 and 1.05, respectively.

Regarding PYYASYPPSPD [GDAP2_Y491_T489A], the phosphorylation enrichment with AncSZ stood at 1.41; in the series with EPHB1, 10.8; with EPHB2, 17.7; in the series with FGFR1, 4.96; with FGFR3 it was 3.53; with Fer (mouse) it was 0.915. Also, the phosphorylation enrichment in the series with Fes was found to be 1.15; with Fyn, 10.7; with Hck, 4.78; in the series with Jak2, 1.25; in the series with MERTK it was 11.2; with c-Abl (mouse), 4.3. The phosphorylation enrichment with c-Src came to 7.56. In addition, the values for the SH2 binding enrichment in the series with Grb2 SH2, in the series with SHP2-C SH2 and in the series with c-Src SH2 were 0.709, 0.579 and 1, respectively.

Regarding QDEPTYARSSK [PEAK1_Y616_H611Q], the phosphorylation enrichment in the series with AncSZ was found to be 0.787; with EPHB1, 0.389; with EPHB2 it was 0.498; with FGFR1 it was 0.603; with FGFR3 it was 0.508; in the series on Fer (mouse) it was 0.466. Besides, the phosphorylation enrichment was determined as 0.869 with Fes; 0.554 in the series with Fyn; 0.838 with Hck; 0.685 in the series with Jak2; 0.513 in the series with MERTK; 0.738 with c-Abl (mouse). Besides, the phosphorylation enrichment in the series with c-Src was 0.661. Besides, the SH2 binding enrichment is 0.816 with Grb2 SH2, 0.69 with SHP2-C SH2 and 0.561 with c-Src SH2.

For the sequence QEGPEYWDQNT [HLA-A_Y83_E87N], the phosphorylation enrichment in the series on AncSZ was determined as 1.5; in the series with EPHB1, 0.898; in the series with EPHB2, 0.719; with FGFR1, 0.711; in the series with FGFR3 it was 1.14; in the series with Fer (mouse) it was 0.802. The phosphorylation enrichment with Fes turned out to be 1.42; with Fyn, 0.6; with Hck, 0.632; with Jak2, 1.36; in the series with MERTK, 0.625; with c-Abl (mouse), 1.25. Moreover, the phosphorylation enrichment in the series on c-Src is 0.546. Also, the SH2 binding enrichment with Grb2 SH2 came to 0.834; with SHP2-C SH2, 0.702; in the series with c-Src SH2 it was 0.419.
